Test results published in IntAct's records for PubMed 15292222.

B1: Protein phosphatase 1 regulatory subunit 12A (Homo sapiens), O14974 (parent)
chain: MKMADAKQKRNEQLKRWIGSETDLEPPVVKRQKTKVKFDDGAVFLAACSSGDTDEVLKLLHRGADINYANVDGLTALHQACIDDNVDMVKFLVENGANINQPDNEGWIPLHAAASCGYLDIAEFLIGQGAHVGAVNSEGDTPLDIAEEEAMEELLQNEVNRQGVDIEAARKEEERIMLRDARQWLNSGHINDVRHAKSGGTALHVAAAKGYTEVLKLLIQAGYDVNIKDYDGWTPLHAAAHWGKEEACRILVDNLCDMEMVNKVGQTAFDVADEDILGYLEELQKKQNLLHSEKRDKKSPLIESTANMDNNQSQKTFKNKETLIIEPEKNASRIESLEQEKVDEEEEGKKDESSCSSEEDEEDDSESEAETDKTKPLASVTNANTSSTQAAPVAVTTPTVSSGQATPTSPIKKFPTTATKISPKEEERKDESPATWRLGLRKTGSYGALAEITASKEGQKEKDTAGVTRSASSPRLSSSLDNKEKEKDSKGTRLAYVAPTIPRRLASTSDIEEKENRDSSSLRTSSSYTRRKWEDDLKKNSSVNEGSTYHKSCSFGRRQDDLISSSVPSTTSTPTVTSAAGLQKSLLSSTSTTTKITTGSSSAGTQSSTSNRLWAEDSTEKEKDSVPTAVTIPVAPTVVNAAASTTTLTTTTAGTVSSTTEVRERRRSYLTPVRDEESESQRKARSRQARQSRRSTQGVTLTDLQEAEKTIGRSRSTRTREQENEEKEKEEKEKQDKEKQEEKKESETSREDEYKQKYSRTYDETYQRYRPVSTSSSTTPSSSLSTMSSSLYASSQLNRPNSLVGITSAYSRGITKENEREGEKREEEKEGEDKSQPKSIRERRRPREKRRSTGVSFWTQDSDENEQEQQSDTEEGSNKKETQTDSISRYETSSTSAGDRYDSLLGRSGSYSYLEERKPYSSRLEKDDSTDFKKLYEQILAENEKLKAQLHDTNMELTDLKLQLEKATQRQERFADRSLLEMEKRERRALERRISEMEEELKMLPDLKADNQRLKDENGALIRVISKLSK

Variants of: B1
Details: with dapk3_human DAPK3, O43293
dapk3_human DAPK3, O43293, sequence (O43293 whole entry, looked up): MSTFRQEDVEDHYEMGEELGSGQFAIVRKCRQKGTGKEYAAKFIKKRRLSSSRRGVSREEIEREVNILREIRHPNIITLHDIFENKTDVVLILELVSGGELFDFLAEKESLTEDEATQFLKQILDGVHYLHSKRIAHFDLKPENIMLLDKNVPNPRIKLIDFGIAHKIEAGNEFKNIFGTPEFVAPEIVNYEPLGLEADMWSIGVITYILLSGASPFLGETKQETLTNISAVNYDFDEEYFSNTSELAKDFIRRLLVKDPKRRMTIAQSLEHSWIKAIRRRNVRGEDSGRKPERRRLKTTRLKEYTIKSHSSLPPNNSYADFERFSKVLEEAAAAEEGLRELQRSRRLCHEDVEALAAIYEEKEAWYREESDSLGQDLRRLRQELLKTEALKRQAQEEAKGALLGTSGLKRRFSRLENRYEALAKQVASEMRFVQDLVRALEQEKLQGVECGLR

| effect of a mutation on the interaction | Variant |
| --- | --- |
| disrupting interaction | L1007A;L1014A;L1021A;L1028A |
